{"source": "patent EP4789680A1", "about": "“NOVEL PACE4 INHIBITOR AND USE THEREOF IN ANTI-OSTEOARTHRITIS” (Inflamax Pharmaceuticals Limited, priority 2023, dated 2025)", "molecular_target": "T1, PACE4 (UniProt P29122 150-969, limits assumed)", "T1 sequence (looked up)": "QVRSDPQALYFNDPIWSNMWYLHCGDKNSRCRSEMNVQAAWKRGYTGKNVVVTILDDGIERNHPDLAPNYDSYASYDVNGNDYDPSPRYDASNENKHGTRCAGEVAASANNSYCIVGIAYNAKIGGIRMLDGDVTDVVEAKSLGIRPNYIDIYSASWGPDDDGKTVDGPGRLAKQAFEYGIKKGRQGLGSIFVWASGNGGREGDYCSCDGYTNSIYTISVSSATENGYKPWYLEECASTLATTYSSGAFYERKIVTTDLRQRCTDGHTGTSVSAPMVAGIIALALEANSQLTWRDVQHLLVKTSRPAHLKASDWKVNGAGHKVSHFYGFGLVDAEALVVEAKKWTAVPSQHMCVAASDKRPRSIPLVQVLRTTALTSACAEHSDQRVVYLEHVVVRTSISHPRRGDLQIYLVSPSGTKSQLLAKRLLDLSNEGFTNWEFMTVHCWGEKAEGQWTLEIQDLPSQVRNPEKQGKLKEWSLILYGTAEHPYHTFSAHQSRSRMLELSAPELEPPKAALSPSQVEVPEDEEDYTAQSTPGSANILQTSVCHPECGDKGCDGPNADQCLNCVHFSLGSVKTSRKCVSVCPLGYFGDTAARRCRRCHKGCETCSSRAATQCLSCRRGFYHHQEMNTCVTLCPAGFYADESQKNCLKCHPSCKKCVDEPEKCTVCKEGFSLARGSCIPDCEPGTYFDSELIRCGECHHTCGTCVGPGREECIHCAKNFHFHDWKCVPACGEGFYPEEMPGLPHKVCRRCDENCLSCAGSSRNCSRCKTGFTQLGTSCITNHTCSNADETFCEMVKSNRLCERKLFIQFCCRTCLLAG", "assay": "cell-based or functional assay", "note": "*1 amine or outer side, *2 acyl side, *3 side chain or, on linkers, in order; H or OH if unused. Where no end group is shown, it is not given here. [ ]: non-standard residue; d: D form. Ala(piperidin-4-yl) = O=C([C@H](CC1CCN([*:3])CC1)N[*:1])[*:2]; Phe(4-CF3) = N[C@@H](Cc1ccc(C(F)(F)F)cc1)C(=O)O"}
{"binder": "Ac-RFKR-NH2", "note": "[Ac-R-F-K-R-NH2]", "values": [{"measurement": "IC50 (µM), PACE4 enzyme inhibition, fluorogenic substrate pyroGlu-Arg-Val-Lys-Arg-methyl-coumaryl-7-amide", "result": 12.7, "unit": "µM"}]}
{"binder": "Ac-RR[Phe(4-CF3)]KR[dT]-NH2 (SMILES CC(=O)N[C@@H](CCCNC(=N)N)C(=O)N[C@@H](CCCNC(=N)N)C(=O)N[C@@H](Cc1ccc(C(F)(F)F)cc1)C(=O)N[C@@H](CCCCN)C(=O)N[C@@H](CCCNC(=N)N)C(=O)N[C@@H](C(N)=O)[C@H](C)O)", "note": "[Ac-R-R-F(4-CF3)-K-R-dT-NH2]", "values": [{"measurement": "IC50 (µM), PACE4 enzyme inhibition, fluorogenic substrate pyroGlu-Arg-Val-Lys-Arg-methyl-coumaryl-7-amide", "result": 0.09, "unit": "µM"}]}
{"binder": "Ac-[dR]R[Phe(4-CF3)]KR[dT]-NH2 (SMILES CC(=O)N[C@H](CCCNC(=N)N)C(=O)N[C@@H](CCCNC(=N)N)C(=O)N[C@@H](Cc1ccc(C(F)(F)F)cc1)C(=O)N[C@@H](CCCCN)C(=O)N[C@@H](CCCNC(=N)N)C(=O)N[C@@H](C(N)=O)[C@H](C)O)", "note": "[Ac-dR-R-F(4-CF3)-K-R-dT-NH2]", "values": [{"measurement": "IC50 (µM), PACE4 enzyme inhibition, fluorogenic substrate pyroGlu-Arg-Val-Lys-Arg-methyl-coumaryl-7-amide", "result": 0.04, "unit": "µM"}]}
{"binder": "P[dR]R[Phe(4-CF3)]KR[dT]-NH2 (N-terminus assumed; SMILES C[C@H](O)[C@@H](NC(=O)[C@H](CCCNC(=N)N)NC(=O)[C@H](CCCCN)NC(=O)[C@H](Cc1ccc(C(F)(F)F)cc1)NC(=O)[C@H](CCCNC(=N)N)NC(=O)[C@@H](CCCNC(=N)N)NC(=O)[C@@H]1CCCN1)C(N)=O)", "note": "[P-dR-R-F(4-CF3)-K-R-dT-NH2]", "values": [{"measurement": "IC50 (µM), PACE4 enzyme inhibition, fluorogenic substrate pyroGlu-Arg-Val-Lys-Arg-methyl-coumaryl-7-amide", "result": 0.02, "unit": "µM"}]}
{"binder": "[dP][dR]R[Phe(4-CF3)]KR[dT]-NH2 (N-terminus assumed; SMILES C[C@H](O)[C@@H](NC(=O)[C@H](CCCNC(=N)N)NC(=O)[C@H](CCCCN)NC(=O)[C@H](Cc1ccc(C(F)(F)F)cc1)NC(=O)[C@H](CCCNC(=N)N)NC(=O)[C@@H](CCCNC(=N)N)NC(=O)[C@H]1CCCN1)C(N)=O)", "note": "[dP-dR-R-F(4-CF3)-K-R-dT-NH2]", "values": [{"measurement": "IC50 (µM), PACE4 enzyme inhibition, fluorogenic substrate pyroGlu-Arg-Val-Lys-Arg-methyl-coumaryl-7-amide", "result": 0.02, "unit": "µM"}]}
{"binder": "Ac-R[Ala(piperidin-4-yl)]KRT-NH2 (SMILES CC(=O)N[C@@H](CCCNC(=N)N)C(=O)N[C@@H](CC1CCNCC1)C(=O)N[C@@H](CCCCN)C(=O)N[C@@H](CCCNC(=N)N)C(=O)N[C@H](C(N)=O)[C@@H](C)O)", "note": "[Ac-R-A(4-Pip)-K-R-T-NH2]", "values": [{"measurement": "IC50 (µM), PACE4 enzyme inhibition, fluorogenic substrate pyroGlu-Arg-Val-Lys-Arg-methyl-coumaryl-7-amide", "result": 0.3, "unit": "µM"}]}
{"binder": "Ac-R[Ala(piperidin-4-yl)]KR[dT]-NH2 (SMILES CC(=O)N[C@@H](CCCNC(=N)N)C(=O)N[C@@H](CC1CCNCC1)C(=O)N[C@@H](CCCCN)C(=O)N[C@@H](CCCNC(=N)N)C(=O)N[C@@H](C(N)=O)[C@H](C)O)", "note": "[Ac-R-A(4-Pip)-K-R-dT-NH2]", "values": [{"measurement": "IC50 (µM), PACE4 enzyme inhibition, fluorogenic substrate pyroGlu-Arg-Val-Lys-Arg-methyl-coumaryl-7-amide", "result": 0.1, "unit": "µM"}]}
{"binder": "Ac-RR[Ala(piperidin-4-yl)]KR[dT]-NH2 (SMILES CC(=O)N[C@@H](CCCNC(=N)N)C(=O)N[C@@H](CCCNC(=N)N)C(=O)N[C@@H](CC1CCNCC1)C(=O)N[C@@H](CCCCN)C(=O)N[C@@H](CCCNC(=N)N)C(=O)N[C@@H](C(N)=O)[C@H](C)O)", "note": "[Ac-R-R-A(4-Pip)-K-R-dT-NH2]", "values": [{"measurement": "IC50 (µM), PACE4 enzyme inhibition, fluorogenic substrate pyroGlu-Arg-Val-Lys-Arg-methyl-coumaryl-7-amide", "result": 0.09, "unit": "µM"}]}
{"binder": "Ac-[dR]R[Ala(piperidin-4-yl)]KR[dT]-NH2 (SMILES CC(=O)N[C@H](CCCNC(=N)N)C(=O)N[C@@H](CCCNC(=N)N)C(=O)N[C@@H](CC1CCNCC1)C(=O)N[C@@H](CCCCN)C(=O)N[C@@H](CCCNC(=N)N)C(=O)N[C@@H](C(N)=O)[C@H](C)O)", "note": "[Ac-dR-R-A(4-Pip)-K-R-dT-NH2]", "values": [{"measurement": "IC50 (µM), PACE4 enzyme inhibition, fluorogenic substrate pyroGlu-Arg-Val-Lys-Arg-methyl-coumaryl-7-amide", "result": 0.12, "unit": "µM"}]}
